Results from paper PMC13184332.

T1: His-GFP-KERP2Δ185-239 (Entamoeba histolytica, UniProt C4LZX9 1-184, del185-239)
T1 sequence: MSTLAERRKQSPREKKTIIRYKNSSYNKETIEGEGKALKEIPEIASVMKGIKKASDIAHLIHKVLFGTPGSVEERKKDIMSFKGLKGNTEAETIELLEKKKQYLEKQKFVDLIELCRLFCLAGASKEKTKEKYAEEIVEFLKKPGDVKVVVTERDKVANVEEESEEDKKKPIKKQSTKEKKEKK

T2: His-GFP-KERP2 (Entamoeba histolytica, UniProt C4LZX9 1-239)
T2 sequence: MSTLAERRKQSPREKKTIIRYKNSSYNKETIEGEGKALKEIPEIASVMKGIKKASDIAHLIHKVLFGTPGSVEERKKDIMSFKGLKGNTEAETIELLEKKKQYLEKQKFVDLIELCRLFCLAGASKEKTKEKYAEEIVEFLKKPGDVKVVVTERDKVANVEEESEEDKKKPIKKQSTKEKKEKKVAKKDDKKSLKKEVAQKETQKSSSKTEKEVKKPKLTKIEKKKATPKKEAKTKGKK


Experiments:
[1] = molecular target: T1, His-GFP-KERP2Δ185-239; test: EMSA
[2] = molecular target: T2, His-GFP-KERP2; test: EMSA

Binder | binding result [1] | binding result [2]
dsGC (dsDNA) DNA 1: CGGGGCGCCGCGGGGCCCCCGGCCCGCCCCGCGGGGCGCCGGGCCCCGCC DNA 2: GGCGGGGCCCGGCGCCCCGCGGGGCGGGCCGGGGGCCCCGCGGCGCCCCG | no binding | no binding
dsAT (dsDNA) DNA 1: TTAATTAAATAAATTAAAAAATTTTTTAATTAAATTAATTAATAAATTAAAATAAATTTTTTAATTAAATTTTAA DNA 2: TTAAAATTTAATTAAAAAATTTATTTTAATTTATTAATTAATTTAATTAAAAAATTTTTTAATTTATTTAATTAA | binds | binds
ssAT (ssDNA) DNA: TTAATTAAATAAATTAAAAAATTTTTTAATTAAATTAATTAATAAATTAAAATAAATTTTTTAATTAAATTTTAA | binds | binds
